Here are results for two proteins from publication PMC9050680, “Interaction of human CRX and NRL in live HEK293T cells measured using fluorescence resonance energy transfer (FRET)” (Scientific Reports, 2022).

This series deals with the molecule itself. Nature of the series: FRET or BRET; FC-FRET: flow cytometry, sensitized emission (three-cube N_FRET, apparent FRET efficiency) in live transiently cotransfected HEK293T cells suspended in PBS; donor EGFP, acceptor mCherry; population means and dependence on expression level compared with unlinked mCh + eG. In general terms: In BRET a luciferase serves as donor, and the signal depends on an acceptor being close.

B1: human NRL with mCherry or EGFP fused to the N-terminus (near the activation domain) (natural protein)
chain: not shown
notes: NRL, human, neural retina-specific leucine zipper protein; coding region cloned in derivatives of pEGFP-N1 with an NLS and a linker to EGFP or mCherry; mNRL (mCherry, acceptor) and eNRL (EGFP, donor) differ only in the fluorophore and are written as one molecule; The discussion speaks of (Gly)5 linkers between the fluorophores and NRL; also called mNRL; eNRL; source: HEK293T, transiently …
As to B1, the “N_FRET (mean apparent FRET efficiency)” value came to 2.5%.

B2: human CRX with mCherry or EGFP fused to the N-terminus (near the homeodomain) (natural protein)
chain: not shown
notes: CRX, human, cone-rod homeobox protein; coding region cloned in derivatives of pEGFP-N1 with an NLS and a linker to EGFP or mCherry; mCRX (mCherry, acceptor) and eCRX (EGFP, donor) differ only in the fluorophore and are written as one molecule; mCRX + eCRX is a row of m1 with itself; also called mCRX; eCRX; source: HEK293T, transiently transfected, in live cells (fixed cells for acceptor …)
B2: the “N_FRET (mean apparent FRET efficiency)” value is 3.3%.
